Results on 4 molecules are retold here after publication PMC4749145 (Biochemistry, 2015).

The target in series [1] is T1, arylalkylamine N-acetyltransferase like 7 (AANATL7) (Drosophila melanogaster, UniProt Q9W4Y1). The experiment in a line: intrinsic protein fluorescence quenching. It is filed as binding.
In series [2] the target is arylalkylamine N-acetyltransferase like 7 (AANATL7) (Drosophila melanogaster, UniProt Q9W4Y1, R138A). Description: intrinsic protein fluorescence quenching. It is filed as binding.
In series [3] the target is T1, arylalkylamine N-acetyltransferase like 7 (AANATL7). Description: dead-end inhibition kinetics. It is filed as biochemical.
Substrate in the series “purified protein”: CC(=O)SCCNC(=O)CCNC(=O)[C@H](O)C(C)(C)COP(=O)(O)OP(=O)(O)OC[C@H]1O[C@@H](n2cnc3c(N)ncnc32)[C@H](O)[C@@H]1OP(=O)(O)O
The experiment in a line: purified protein. The settings on record: binds first in ordered sequential mechanism; pH 8.0.

Substrate in series [4]: NCCc1ccc(O)cc1
Description: steady-state kinetics, Km,app. It is filed as biochemical, Drosophila melanogaster. The conditions noted are these: acetyl-CoA; pH 8.0.

Substrate in series [5]: NCCc1c[nH]c2ccc(OCc3ccccc3)cc12
The experiment in a line: steady-state kinetics, Km,app. It is filed as biochemical, Drosophila melanogaster. The conditions noted are these: acetyl-CoA; pH 8.0.

Substrate in series [6]: CCCC(=O)SCCNC(=O)CCNC(=O)[C@H](O)C(C)(C)COP(=O)(O)OP(=O)(O)OC[C@H]1O[C@@H](n2cnc3c(N)ncnc32)[C@H](O)[C@@H]1OP(=O)(O)O
Description: steady-state kinetics, Km,app. It is filed as biochemical, Drosophila melanogaster. The settings on record: pH 8.0.

Substrate in series [7]: NCCc1c[nH]c2ccccc12
Description: steady-state kinetics, Km,app. It is filed as biochemical, Drosophila melanogaster. The conditions noted are these: acetyl-CoA; pH 8.0.

Turning to `CC(C)(COP(=O)(O)OP(=O)(O)OC[C@H]1O[C@@H](n2cnc3c(N)ncnc32)[C@H](O)[C@@H]1OP(=O)(O)O)[C@@H](O)C(=O)NCCC(=O)NCCS` [coenzyme A], the Kd in series [1] came to 530 ± 110 µM; in series [2], 1100 ± 200 µM.
In series [3], `OCCc1ccc(O)cc1` [tyrosol] showed a Ki of 430 ± 20 µM.
As to `CCCCCCCC/C=C\CCCCCCCC(=O)SCCNC(=O)CCNC(=O)[C@H](O)C(C)(C)COP(=O)(O)OP(=O)(O)OC[C@H]1O[C@@H](n2cnc3c(N)ncnc32)[C@H](O)[C@@H]1OP(=O)(O)O` [oleoyl-CoA], in series [3], the Ki was determined as 0.2 ± 0.01 µM.

B1: arylalkylamine N-acetyltransferase like 7 (AANATL7) (Drosophila melanogaster) (protein)
chain: MEYKMIAPEHSEQVMEHLRRNFFADEPLNKAAGLCQNGSSCPALEAHCAEAIQHRMSVMAVDAKEKDTLKIVGVVLNGILKPGDTAKALSKLDCNDDADFRKIFDLLHRHNLKHNLFEHFDVDCMFDVRILSVDSCYRGQGIANELVKRSVAVAKKNGFRLLKADATGIFSQKIFRSHGFEVFSEQPYSKYTDENGKVILPVEAPHIKLQQLYKAICADDQDEKKQSL
With B1, the Km in the series “purified protein” turned out to be 29 ± 2 µM; in series [4] it was 42 ± 2 µM; in series [5], 9 ± 1 µM; in series [6], 6 ± 1 µM; in series [7], 26 ± 2 µM. For the same molecule, the kcat in the series “purified protein” was 32 s⁻¹; in series [5] it was 5.7 ± 0.1 s⁻¹; in series [6], 0.66 ± 0.02 s⁻¹; in series [7], 16 ± 0.3 s⁻¹. In addition, the kcat/Km in “purified protein” was 1.1e+06 M⁻¹ s⁻¹; in series [5], 630000 ± 40000 M⁻¹ s⁻¹; in series [6], 110000 ± 20000 M⁻¹ s⁻¹; in series [7] it was 600000 ± 40000 M⁻¹ s⁻¹.

The term Kd denotes the equilibrium constant for the complex coming apart. A higher Kd goes with weaker binding. By Ki is commonly meant a measure of affinity in units of concentration, obtained from inhibition or displacement. A higher Ki goes with lower affinity. The Km is the substrate concentration at which the rate is half of its maximum. As usually defined, the kcat is the maximal rate divided by the concentration of active sites. In general, kcat/Km refers to the turnover number divided by the Michaelis constant.
